Assays:
[1] = molecular target: T1, streptavidin-R-phycoerythrin (UniProt P22629 37-163, limits assumed); experiment: flow cytometry of E. coli displaying the construct, 100 nM SA-PE; 30 minutes of expression
T1 construct: Bought conjugate; also called SA-PE; fluorescently-conjugated streptavidin probe
Experimental: To compare the display level of CPX and eCPX as a function of time of CPX and eCPX, cells were subcultured 1:50 from overnight stocks into 5 mL LB Cm and grown for 2 hours shaking (250 rpm) at 37° C. The cells were then moved to room temperature (22° C.) to equilibrate and induced with 0.04% (w/v) L-arabinose still shaking at 250 rpm. Five μL samples were taken prior to induction, 30, 60, and 90 minutes after induction then added to 50 μL of 100 nM SA-PE in PBS and incubated on ice for 45 minutes. After which the cells were centrifuged (3000 g, 5 min), supernatant removed, and resuspended in 500 μL ice cold PBS. Cells were immediately analyzed with a […] using 488 nm excitation and collected fluorescence data at 576 nm.
The cell surface display level of SApep was measured at incremental times after induction of expression for these three scaffolds. […] The level of display was measured before and after 30, 60, and 90 minutes of induction using flow cytometry (FIG. 1). […] After only 30 minutes of expression, the level of display of eCPX-nSApep was 50-fold above background autofluorescence.

[2] = molecular target: T1, streptavidin-R-phycoerythrin; experiment: flow cytometry of E. coli displaying the construct, 100 nM SA-PE; 25 minutes of expression
[3] = molecular target: T2, biotinylated C-reactive protein (UniProt P02741 19-224, biotinylated); experiment: flow cytometry of E. coli displaying the construct, 100 nM biotinylated CRP then 10 nM SA-PE; 30 minutes of expression; reference CPX display
T2 construct: also called CRP; biotinylated CRP
T2 sequence (looked up): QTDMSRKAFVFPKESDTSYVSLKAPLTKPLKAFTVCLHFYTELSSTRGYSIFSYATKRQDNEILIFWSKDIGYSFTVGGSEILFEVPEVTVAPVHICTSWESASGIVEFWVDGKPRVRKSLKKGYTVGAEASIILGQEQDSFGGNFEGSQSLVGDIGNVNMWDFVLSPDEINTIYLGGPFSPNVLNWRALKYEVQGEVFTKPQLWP

[4] = molecular target: T3, biotinylated vascular endothelial growth factor (UniProt P15692-4 27-191, limits assumed); experiment: flow cytometry of E. coli displaying the construct, 65 nM biotinylated VEGF then 10 nM SA-PE; reference CPX display
T3 construct: also called VEGF; biotinylated VEGF
T3 sequence (P15692 other isoform, or with tags, fused parts or gaps limits assumed): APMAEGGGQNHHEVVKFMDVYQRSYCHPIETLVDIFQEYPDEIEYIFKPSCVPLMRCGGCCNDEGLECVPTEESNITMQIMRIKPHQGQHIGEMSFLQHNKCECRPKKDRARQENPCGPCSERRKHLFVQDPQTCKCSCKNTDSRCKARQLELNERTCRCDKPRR

T1 sequence (P22629 37-163 limits assumed): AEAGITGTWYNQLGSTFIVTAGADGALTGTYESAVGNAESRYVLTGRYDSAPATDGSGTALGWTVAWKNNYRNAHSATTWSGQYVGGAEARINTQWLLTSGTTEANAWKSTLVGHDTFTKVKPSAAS

B1: CPX-L2-1 (enhanced CPX, eCPX) displaying SApep at the N-terminus (other)
chain: GQSGQAECHPQGPPCIEGRKGGQSGQSGDYNKNQYYGITAGPAYRINDWASIYGVVGVGYGKFQTTEYPTYKHDTSDYGFSYGAGLQFNPMENVALDFSYEQSRIRSVDVGTWILSVGYRFGSKSRRATSTVTGGYAQSDAQGQMNKMGGFNLKYRYEEDNSPLGVIGSFTYTEKSRTAS
notes: also called eCPX-nSApep
How did the “level of display (fold above background autofluorescence)” value [1] turn out when B1 was run?
The value was 50 fold above background.

And the “Relative Display level (fold fluorescence above background)” value [2]?
The value was 33 fold above background.

B2: eCPX displaying the CRP binding peptide (CRPpep) at the N-terminus (other)
chain: GQSGQEWACNDRGFNCQLQRGGQSGQSGDYNKNQYYGITAGPAYRINDWASIYGVVGVGYGKFQTTEYPTYKHDTSDYGFSYGAGLQFNPMENVALDFSYEQSRIRSVDVGTWILSVGYRFGSKSRRATSTVTGGYAQSDAQGQMNKMGGFNLKYRYEEDNSPLGVIGSFTYTEKSRTAS
notes: Disulfide-constrained peptide; also called CRP-1
With B2 as the binder, how does the “fold higher fluorescence labeling than for CPX” value [3] read?
Its value is roughly 50 fold.

B3: eCPX displaying the VEGF binding peptide at the N-terminus (other)
chain: GQSGQVEPNCDIHVMWEWECFERLGGQSGQSGDYNKNQYYGITAGPAYRINDWASIYGVVGVGYGKFQTTEYPTYKHDTSDYGFSYGAGLQFNPMENVALDFSYEQSRIRSVDVGTWILSVGYRFGSKSRRATSTVTGGYAQSDAQGQMNKMGGFNLKYRYEEDNSPLGVIGSFTYTEKSRTAS
notes: Disulfide-constrained 19-mer; also called V114
With B3 as the binder, how does the “fold more efficient display than CPX” value [4] read?
The value was greater than 3 fold.
